We go through eight molecules from patent publication CN116355095A (SHANGHAI L&L VISION BIOPHARMACEUTICALS CO LTD, dated 2023).

In experiment [1] the target is T1, 人TIGIT重组蛋白 (hTIGIT; TIGIT-hFc 或 TIGIT-his) (human, UniProt Q495A1 22-141).
T1 construct: extracellular domain; not shown: C-terminal tag (-his, -hFc or -mFc)
T1 sequence (looked up): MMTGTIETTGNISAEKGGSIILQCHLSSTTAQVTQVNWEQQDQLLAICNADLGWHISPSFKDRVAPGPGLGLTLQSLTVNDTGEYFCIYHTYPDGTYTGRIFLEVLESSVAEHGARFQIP
As to the kind of experiment: ELISA on coated hTIGIT. A general note: In an ELISA, binding on a coated surface is turned into a signal by an enzyme label.

For experiment [2], the target named is T2, CHO-K1-T1001细胞表达的人TIGIT (human, UniProt Q495A1 22-244).
T2 construct: whole, on cells; also called hTIGIT+细胞; CHO-K1 TIGIT+细胞系
T2 sequence (looked up): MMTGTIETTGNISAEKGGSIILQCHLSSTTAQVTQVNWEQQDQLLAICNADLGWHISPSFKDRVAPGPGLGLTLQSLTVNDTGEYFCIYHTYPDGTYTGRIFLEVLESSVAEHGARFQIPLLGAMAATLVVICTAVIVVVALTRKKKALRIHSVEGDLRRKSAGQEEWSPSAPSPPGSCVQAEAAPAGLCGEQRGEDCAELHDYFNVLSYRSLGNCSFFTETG
As to the kind of experiment: cell ELISA on fixed hTIGIT+ CHO-K1 cells.

Experiment [3] has as its target T1, 人TIGIT重组蛋白 (hTIGIT; TIGIT-hFc 或 …). As to the kind of experiment: ELISA on coated hTIGIT; reference Ref2.
Experiment [4] has as its target T3, 恒河猴TIGIT-mFc (rhesus monkey; mouse, UniProt A0A5F8AKQ5 22-142; P01863 98-330 = IgG part).
T3 construct: also called RhTIGIT-mFc; RhTIGIT
As to the kind of experiment: ELISA on coated RhTIGIT-mFc; reference Ref1.

Experiment [5] deals with T3, 恒河猴TIGIT-mFc. As to the kind of experiment: ELISA on coated RhTIGIT-mFc; reference Ref2.
Experiment [6] addresses T4, 人TIGIT-hFc (human, UniProt Q495A1 22-141; P01857 99-330 = IgG part, limits assumed).
T4 construct: extracellular domain;domain: IgG1 Fc区域; also called hTIGIT
As to the kind of experiment: blocking ELISA: Bio-CD155 on coated TIGIT-hFc.

For experiment [7], the target named is T2, CHO-K1-T1001细胞表达的人TIGIT. As to the kind of experiment: cell ELISA on fixed hTIGIT+ CHO-K1 cells; reference Ref2.
The target in experiment [8] is T4, 人TIGIT-hFc. As to the kind of experiment: blocking ELISA: Bio-CD155 on coated TIGIT-hFc; reference Ref2.
In experiment [9] the target is T4, 人TIGIT-hFc. As to the kind of experiment: blocking ELISA: Bio-CD155 on coated TIGIT-hFc; reference Ref1.
Experiment [10] concerns the target T3, 恒河猴TIGIT-mFc. As to the kind of experiment: ELISA on coated RhTIGIT-mFc.
Another experiment deals with T5, 小鼠TIGIT-his (mouse, UniProt P86176 29-148, limits assumed).
T5 construct: Bought reagent; also called mouse TIGIT-his; muTIGIT-his
T5 sequence: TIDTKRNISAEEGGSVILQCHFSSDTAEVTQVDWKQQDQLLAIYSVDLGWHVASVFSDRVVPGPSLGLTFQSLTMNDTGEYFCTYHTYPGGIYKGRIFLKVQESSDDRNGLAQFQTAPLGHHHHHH
As to the kind of experiment: ELISA on coated antigen (Example 3).

Experiment [11] addresses T2, CHO-K1-T1001细胞表达的人TIGIT. As to the kind of experiment: cell ELISA on fixed hTIGIT+ CHO-K1 cells; reference Ref1.
A further experiment concerns the target T6, LT023 (TIGIT/his) (human, UniProt Q495A1 22-141).
T6 construct: extracellular domain; Made in-house
T6 sequence: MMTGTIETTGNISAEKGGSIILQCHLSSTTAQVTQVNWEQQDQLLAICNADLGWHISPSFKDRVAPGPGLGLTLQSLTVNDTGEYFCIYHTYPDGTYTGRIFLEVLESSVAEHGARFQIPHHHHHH
As to the kind of experiment: double sandwich ELISA: coated TIGIT/his, detection with PD-L1/mFc (Example 6), used on serum samples.

For experiment [12], the target named is T1, 人TIGIT重组蛋白 (hTIGIT; TIGIT-hFc 或 …). As to the kind of experiment: ELISA on coated antigen.
The next experiment addresses T7, 人PD-1(hFc/his tag) (human, UniProt Q15116 25-170).
T7 construct: extracellular domain; not shown: C-terminal tag (hFc or his)
As to the kind of experiment: ELISA on coated antigen.

Several values for one entry are separate records, joined by “and”; a condition that tells them apart may be missing. Equal values may be shown once.

T3 sequence (P01863 other isoform, or with tags, fused parts or gaps): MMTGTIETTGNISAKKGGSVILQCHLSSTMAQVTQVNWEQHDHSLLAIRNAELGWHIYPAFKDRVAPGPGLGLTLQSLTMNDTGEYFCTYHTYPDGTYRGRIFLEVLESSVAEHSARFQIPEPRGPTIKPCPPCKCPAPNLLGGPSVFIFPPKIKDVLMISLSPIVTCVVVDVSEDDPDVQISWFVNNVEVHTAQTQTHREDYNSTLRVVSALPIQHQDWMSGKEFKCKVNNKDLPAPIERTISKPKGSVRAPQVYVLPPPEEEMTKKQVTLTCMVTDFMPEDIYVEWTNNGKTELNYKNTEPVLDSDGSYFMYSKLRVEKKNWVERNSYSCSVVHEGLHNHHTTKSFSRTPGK
T7 sequence (Q15116 25-170): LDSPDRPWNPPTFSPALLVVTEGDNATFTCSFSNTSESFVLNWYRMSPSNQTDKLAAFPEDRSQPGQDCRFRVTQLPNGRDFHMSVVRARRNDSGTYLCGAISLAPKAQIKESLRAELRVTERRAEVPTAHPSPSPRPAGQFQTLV

B1: 嵌合抗体mab22c (antibody, human IgG1, kappa, V domains shown)
VH: EVKLVESGGGLVQPGGSLKLSCVASGFTFSSYTMSWVRQTPEKRLELVAEISSSGGSTYYPDTVKGRFTISRDNAKNTLFLQMNSLKSEDTAMYYCARPGLGAWFAYWGQGTLVTVSA
VL: DVLMTQTPLSLPVSLGDQASISCRSSQSIVHNSGNTYLEWYLQKPGQSPKLLIYKVSNRFSGVPDRFSGSGSGTDFTLKISRVEAEDLGIYYCFQFSHVPRTFGGGTKLEIKR
notes: also called 人鼠嵌合抗体mab22c
By EC50 is commonly meant the concentration giving half of the maximal effect. In general, IC50 refers to the concentration at which inhibition is half-maximal. Read a high IC50 as lower potency. Consider B1, for which the EC50 in experiment [1] was 0.27 nM and 0.585 nM; with CHO-K1-T1001细胞表达的人TIGIT [2], 0.101 nM; with 恒河猴TIGIT-mFc [10] it was 0.658 nM. The “EC50 ratio to Ref2” value in experiment [3] was 0.68 fold; with 恒河猴TIGIT-mFc [5] it was about 2 fold; with CHO-K1-T1001细胞表达的人TIGIT [7], 0.47 fold. Moreover, in the experiment with 恒河猴TIGIT-mFc [4], the “EC50 ratio to Ref1” value was about 2 fold. The IC50 with 人TIGIT-hFc [6] is 0.541 nM. For the same molecule, the “IC50 ratio to Ref2” value with 人TIGIT-hFc [8] amounted to 0.51 fold. Moreover, in the experiment with 人TIGIT-hFc [9], the “IC50 ratio to Ref1” value came out at 0.46 fold.

B2: 人源化抗体mab22-h2 (antibody, human IgG1, kappa, V domains shown)
VH: EVQLVESGGGLVQPGGSLRLSCAASGFTFSSYTMSWVRQAPGKGLEWVSEISSSGGSTYYPDTVKGRFTISRDNSKNTLYLQMNSLRAEDTAVYYCARPGLGAWFAYWGQGTLVTVSS
VL: DVVMTQSPLSLPVTPGEPASISCRSSQSIVHNSGNTYLEWYLQKPGQSPKLLIYKVSNRFSGVPDRFSGSGSGTDFTLKISRVEAEDVGVYYCFQFSHVPRTFGGGTKVEIKR
notes: hIgG1, kappa
On to B2, for which the binding result (in [1]; with CHO-K1-T1001细胞表达的人TIGIT [2]) was “binds” in each case.

B3: IF091 (鼠源单克隆抗体mab22) (antibody, V domains shown)
VH: EVKLVESGGGLVQPGGSLKLSCVASGFTFSSYTMSWVRQTPEKRLELVAEISSSGGSTYYPDTVKGRFTISRDNAKNTLFLQMNSLKSEDTAMYYCARPGLGAWFAYWGQGTLVTVSA
VL: DVLMTQTPLSLPVSLGDQASISCRSSQSIVHNSGNTYLEWYLQKPGQSPKLLIYKVSNRFSGVPDRFSGSGSGTDFTLKISRVEAEDLGIYYCFQFSHVPRTFGGGTKLEIK
notes: Mouse antibody purified from ascites
Regarding B3, the binding result with 小鼠TIGIT-his was “no binding (tested: 10μg/mL起始，5倍梯度稀释)”.

B4: 人源化抗体mab22-h6 (antibody, human IgG1, kappa)
heavy: not shown
light: DIVMTQSPLSLPVTPGEPASISCRSSQSIVHNSGNTYLEWYLQKPGQSPKLLIYKVSNRFSGVPDRFSGSGSGTDFTLKISRVEAEDVGVYYCFQFSHVPRTFGGGTKVEIKRTVAAPSVFIFPPSDEQLKSGTASVVCLLNNFYPREAKVQWKVDNALQSGNSQESVTEQDSKDSTYSLSSTLTLSKADYEKHKVYACEVTHQGLSSPVTKSFNRGEC
notes: hIgG1, kappa
Regarding B4, the EC50 in the experiment with CHO-K1-T1001细胞表达的人TIGIT [2] was 0.0133 nM. Further, inhibition in the experiment with 人TIGIT-hFc [6] was half-maximal at 1.44 nM (IC50). Moreover, the “EC50 ratio to Ref1” value with CHO-K1-T1001细胞表达的人TIGIT [11] was found to be 0.5 fold. Besides, in the experiment with 人TIGIT-hFc [9], the “IC50 ratio to Ref1” value was determined as 0.44 fold.

B5: 双特异抗体LB621 (bispecific antibody)
heavy: not shown
light: DIVMTQSPLSLPVTPGEPASISCRSSQSIVHNSGNTYLEWYLQKPGQSPKLLIYKVSNRFSGVPDRFSGSGSGTDFTLKISRVEAEDVGVYYCFQFSHVPRTFGGGTKVEIKRTVAAPSVFIFPPSDEQLKSGTASVVCLLNNFYPREAKVQWKVDNALQSGNSQESVTEQDSKDSTYSLSSTLTLSKADYEKHKVYACEVTHQGLSSPVTKSFNRGEC
notes: Whole mab22-h6 antibody with an anti-PD-L1 (Atezo) scFv joined to its heavy chain; the printed heavy chain carries the scFv at the C-terminus with the last K changed to A
Turning to B5, the binding result (with LT023 (TIGIT/his); in experiment [12]) was “binds” in each case.

B6: 双特异抗体LB610 (bispecific antibody, human IgG1, kappa)
heavy: not shown
light: DIVMTQSPLSLPVTPGEPASISCRSSQSIVHNSGNTYLEWYLQKPGQSPKLLIYKVSNRFSGVPDRFSGSGSGTDFTLKISRVEAEDVGVYYCFQFSHVPRTFGGGTKVEIKRTVAAPSVFIFPPSDEQLKSGTASVVCLLNNFYPREAKVQWKVDNALQSGNSQESVTEQDSKDSTYSLSSTLTLSKADYEKHKVYACEVTHQGLSSPVTKSFNRGEC
B6: the binding result (in [12]; in the experiment with 人PD-1(hFc/his tag)) was “binds” each time.

B7: 双特异抗体LB615 (bispecific antibody)
heavy: not shown
light: DIVMTQSPLSLPVTPGEPASISCRSSQSIVHNSGNTYLEWYLQKPGQSPKLLIYKVSNRFSGVPDRFSGSGSGTDFTLKISRVEAEDVGVYYCFQFSHVPRTFGGGTKVEIKRTVAAPSVFIFPPSDEQLKSGTASVVCLLNNFYPREAKVQWKVDNALQSGNSQESVTEQDSKDSTYSLSSTLTLSKADYEKHKVYACEVTHQGLSSPVTKSFNRGEC
Regarding B7, the binding result in experiment [12] is recorded as “binds”.

B8: 人源化抗体mab22-h1 (antibody, human IgG1, kappa, V domains shown)
VH: EVQLVESGGGLVQPGGSLRLSCAASGFTFSSYTMSWVRQAPGKGLEWVSEISSSGGSTYYPDTVKGRFTISRDNSKNTLYLQMNSLRAEDTAVYYCARPGLGAWFAYWGQGTLVTVSS
VL: DIVMTQSPLSLPVTPGEPASISCRSSQSIVHNSGNTYLEWYLQKPGQSPQLLIYKVSNRFSGVPDRFSGSGSGTDFTLKISRVEAEDVGVYYCFQFSHVPRTFGGGTKVEIKR
notes: hIgG1, kappa
As for B8, the binding result (in [1]; with CHO-K1-T1001细胞表达的人TIGIT [2]) was “binds” in each case.
